Results on eight molecules are retold here after patent US20190367592A1 (AC IMMUNE, published 2019).

In test [1] the target is T1, full-length human Tau (flTau) (human, UniProt P10636-8 1-441).
T1 construct: range 1-441; bought (SignalChem); also called human Tau-441
In words: SPR, hybridoma Ab on anti-IgG chip, flTau analyte. How it is done:
Affinity of non-purified antibodies in serum-free hybridoma supernatants was estimated by surface plasmon resonance using a Biacore T-100 instrument (GE Healthcare, United Kingdom). Antibodies were immobilized onto an anti-IgG biosensor chip, and flTau (SignalChem, Canada) was used as the target analyte. Kinetic analysis was done using a 1:1 Langmuir fit model.
For affinity measurements to flTau, antibodies were measured using SPR on a Biacore instrument, with the KDs determined. Biacore affinity measurements were done by immobilizing antibodies on an anti-IgG chip and using flTau as the target analyte.

Test [2] concerns the target T2, MAPT(10-24) (human, also: biotinylated, site not given here).
T2 construct: also called Tau fragment 10-24
T2 peptide: VMEDHAGTYGLGDRK
In words: ELISA on Tau 15-mer peptides, O.D.; conditions of this panel not given.

Test [3] addresses T3, Tau fragment 19-33 (human, UniProt P10636-8 19-33, not fully specified).
T3 construct: range 19-33
T3 peptide (looked up): GLGDRKDQGGYTMHQ
Described as above.

The target of test [4] is T4, Tau fragment 1-15 (human, UniProt P10636-8 1-15).
T4 construct: range 1-15
T4 peptide (looked up): MAEPRQEFEVMEDHA
Described as above.

Test [5] concerns the target T5, Tau fragment 37-51 (human, UniProt P10636-8 37-51).
T5 construct: range 37-51
T5 peptide (looked up): GDTDAGLKESPLQTP
The test is described as above.

The target of test [6] is T6, Tau fragment 28-42 (human, UniProt P10636-8 28-42, not fully specified).
T6 construct: range 28-42
T6 peptide (looked up): GYTMHQDQEGDTDAG
The description is as above.

Test [7] concerns the target T7, recombinant human Tau monomer, 2N4R isoform (amino acids 2-441) (human, UniProt P10636-8 2-441).
T7 construct: range 2-441; N-terminal His-tag removed with TEV protease; also called monomeric Tau
In words: SPR, mIgG2a captured, Tau monomer analyte, 1:1 fit. The source says: Antibody heavy and light chains were constructed via gene synthesis and subcloning of the resulting DNA into murine IgG2a (heavy chain) and murine kappa (light chain) mammalian expression vectors. Antibodies were expressed in CHO or 293T cells by transient co-transfection of the heavy chain and light chain plasmids and were purified with affinity resin MabSelectSure (GE Healthcare Life Sciences). Purified recombinant antibodies were screened for binding to Tau monomer protein on a Biacore T200 surface plasmon resonance instrument using a mouse IgG capture kit and a Series S CM5 chip. Antibodies in mIgG2a format diluted in 10 mM HEPES pH7.4, 150 mM NaCl, 0.05% Tween 20 (running buffer, HBSP) were captured for 30 or 45 seconds at a concentration of 1 μg/ml (antibodies 26C1, 94B2-C1, 52F6-F11.v1, 52F6-F11.v2, 11E10-B8, 55E7-F11, 125B1-H3, 123E9-A1, 30G1-B2, 66F5-A1, 89F4-A1, 93A8-D2 and 126F11-G11) or for 70 or 150 seconds at a concentration of 0.1 μg/ml (antibodies 19H6-F7, 3A4-H4, 54C1-H11 and 37D3-H9) using a flow rate of 10 μl/min. […] Association and dissociation times were monitored for 180-480 seconds and for 300-600 seconds respectively. Antibody 37D3-H9 was selected for further analysis due to the high affinity (Table 6) and the absence of NXS/T glycosylation motifs in the CDRs.

Test [8] concerns the target T8, 0N4R Tau (human, UniProt P10636-6 1-383).
T8 construct: also called 0N-Tau
Put plainly: indirect or sandwich ELISA on recombinant human Tau isoforms.

Test [9] deals with T7, recombinant human Tau monomer, 2N4R …. Put plainly: SPR, hIgG captured, Tau monomer analyte, 1:1 fit. How it is done: Affinity of selected antibodies was assessed at 25° C. using a Biacore T200 instrument, the GE Biacore human IgG capture kit and a CM5 Series S chip. The hIgG were diluted to 0.25 μg/ml in 10 mM HEPES pH7.4, 150 mM NaCl, 0.05% Tween 20 (running buffer, HBSP) and captured at a flow rate of 10 μl/min for 150 seconds. Kinetic data was collected for Human Tau monomer injected at concentrations of 0, 0.4, 1.2, 3.7, 11, 11, 33 and 100 nM in HBSP, using a flow rate of 30 μl/min, a 300 second association phase and a 600 second dissociation phase. Between cycles the surface was regenerated using two sequential 30 second injections of 3M MgCl at 10 μl/min. Data was fit to a 1:1 binding model (Table 15).

For test [10] the target is unchanged. In words: SPR single-cycle, human Fab capture kit, Tau monomer analyte; mean ± range, n=2. How it is done:
Affinity of the humanized antibody variants was measured at 25° C. using a Biacore T200 instrument, the GE Biacore human FAb capture kit, and a CM5 Series S chip. Antibodies were diluted to 1 μg/ml in HBSP (10 mM HEPES pH7.4, 150 mM NaCl, 0.05% Tween 20) and captured at a flow rate of 10 μl/min for 180 seconds. Kinetic data were collected for human Tau monomer injected at 1.2, 3.7, 11, 33 and 100 nM in HBSP using the Single Cycle Kinetics methodology and a flow rate of 30 μl/min. Each concentration of Tau monomer was injected for a period of 3 minutes and dissociation was monitored for ten minutes. Between cycles, the surface was regenerated with two sequential one-minute injections of 10 mM glycine pH2.1. Data was fit to a 1:1 binding model using BIAEvaluation software. Each antibody was analyzed twice within the experiment; data in Table 22 are shown as mean±range.

Where no end group is shown, it is not given here.

T8 sequence (P10636 other isoform, or with tags, fused parts or gaps limits assumed): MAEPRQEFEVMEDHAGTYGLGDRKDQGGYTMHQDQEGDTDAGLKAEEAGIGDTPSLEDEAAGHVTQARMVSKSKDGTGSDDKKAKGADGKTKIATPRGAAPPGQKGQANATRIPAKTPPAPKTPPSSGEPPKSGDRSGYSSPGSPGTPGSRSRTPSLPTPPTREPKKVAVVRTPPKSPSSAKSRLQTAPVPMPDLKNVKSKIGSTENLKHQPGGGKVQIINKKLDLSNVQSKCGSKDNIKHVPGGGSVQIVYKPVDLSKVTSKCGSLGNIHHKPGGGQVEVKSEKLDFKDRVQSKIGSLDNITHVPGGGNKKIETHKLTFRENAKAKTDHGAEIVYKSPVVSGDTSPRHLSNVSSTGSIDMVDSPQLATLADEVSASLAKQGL
T1 sequence (P10636 other isoform, or with tags, fused parts or gaps limits assumed): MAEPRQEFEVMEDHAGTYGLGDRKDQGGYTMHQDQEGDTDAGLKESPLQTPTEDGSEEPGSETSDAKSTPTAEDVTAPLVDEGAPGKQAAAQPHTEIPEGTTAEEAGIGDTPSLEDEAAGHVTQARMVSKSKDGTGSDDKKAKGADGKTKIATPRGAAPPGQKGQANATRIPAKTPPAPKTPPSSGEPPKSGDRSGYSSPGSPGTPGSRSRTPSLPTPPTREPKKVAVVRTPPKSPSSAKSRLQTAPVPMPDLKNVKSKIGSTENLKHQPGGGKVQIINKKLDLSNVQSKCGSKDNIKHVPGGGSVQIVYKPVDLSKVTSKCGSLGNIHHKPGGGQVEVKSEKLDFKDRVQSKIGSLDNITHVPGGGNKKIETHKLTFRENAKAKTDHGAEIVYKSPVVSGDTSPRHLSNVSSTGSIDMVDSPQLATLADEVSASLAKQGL
T7 sequence (P10636 other isoform, or with tags, fused parts or gaps limits assumed): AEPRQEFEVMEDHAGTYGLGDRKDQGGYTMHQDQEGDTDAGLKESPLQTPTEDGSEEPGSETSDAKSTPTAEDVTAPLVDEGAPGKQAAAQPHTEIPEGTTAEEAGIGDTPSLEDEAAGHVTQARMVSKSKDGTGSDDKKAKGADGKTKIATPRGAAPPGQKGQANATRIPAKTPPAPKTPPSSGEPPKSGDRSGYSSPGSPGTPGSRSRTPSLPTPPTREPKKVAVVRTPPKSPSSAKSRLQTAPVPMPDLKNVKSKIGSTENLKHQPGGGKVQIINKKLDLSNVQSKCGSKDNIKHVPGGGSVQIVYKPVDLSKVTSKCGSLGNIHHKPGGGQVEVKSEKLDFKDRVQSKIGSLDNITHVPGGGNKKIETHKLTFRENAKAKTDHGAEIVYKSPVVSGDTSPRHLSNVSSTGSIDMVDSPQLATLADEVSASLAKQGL

B1: 54C1-H11 (antibody, mouse IgG2a, V domains shown)
VH: EVQLVESGGDLVKPGGSLKVSCVASGFTFRSYGMSWVRQTPDKRLDWVATISSGGNYTYYPDSVKGRFTISRDNAKNTLYLQMSSLKSEDTAMYYCASSYSGAMDYWGQGTSVTVSS
VL: DTVMTQSPLSLPVSLGDQASISCRSSQSIVHSNGNTYLEWYLQKPGQSPKLLIYTVSNRFSGVPDRFSGSGSGTDFTLKISRVEAEDLGVYYCFQGSHVPWTFGGGTKLEIK
Turning to B1, the Kd in test [1] was determined as 1.5 nM; in test [7] it was 0.6 nM. The binding result in test [2] is listed as “binds”; in test [3], “no binding (tested: not given)”; in test [4] it was “no binding (tested: not given)”; in [5], “no binding (tested: not given)”; in test [6] it was “no binding (tested: not given)”. Further, in [7], the koff is 0.0002 s⁻¹. In addition, in [7], the kon is 300000 M⁻¹ s⁻¹.

B2: 12A10-E8 (antibody, V domains shown)
VH: QIQLVQSGPELKKPGETVKISCKASGYTFTNYGMNWVKQAPGKGLKWMGWINMYTGEPTYGDDFKGRFVFSLETSVSTVYLQINNLKKEDTATFFCARGGRPDYWGQGTSVTVSS
VL: DVLMTQTPLSLPVSLGDQASISCRSSQSIVHSNGNTYLEWYLQKPGQSPKLLIYKVFNRFSGVPDRFSGSGSGTDFTLKINRVEAEDLGVYYCLQGSHVPYTFGGGTKLEIK
notes: hybridoma supernatant
As to B2, the Kd in test [1] worked out at 0.8 nM. Besides, the binding result in test [8] is recorded as “no binding (tested: not given)”.

B3: 123E9-A1 (antibody, mouse IgG2a, V domains shown)
VH: EVQLQQSGPELVKPGASVKMSCKASGYTFTDYYMKWVKQSHGKSLEWIGDIDPNNGGTSYNQKFKGKATLTVDKSSSTAYMQLNSLTSEDSAVYYCARSAGFGDSFSFWGLGTLVTVSA
VL: DVLMTQTPLSLPVSLGDQASISCRSSQSIVHSNGNTYLEWYLQKPGQSPKLLIYKVSNRFSGVPDRFSGSGSGTDFTLKISRVEAEDLGFYYCFQGSHVPPTFGGGTKLEIK
Take B3: the dissociation constant (Kd) in test [1] amounted to 1.8 nM; in [7] it was 52 nM. The binding result is on record as “no binding (tested: not given)” in test [2]; “binds” in [3]; “no binding (tested: not given)” in test [4]; “no binding (tested: not given)” in test [5]; “binds” in test [6]. In addition, in [7], the koff was determined as 0.02 s⁻¹. Besides, the kon in [7] came to 400000 M⁻¹ s⁻¹.

B4: 55E7-F11 (antibody, mouse IgG2a, V domains shown)
VH: EVKLEESGGGLVQPGGSMKLSCVASGFTFSNYWMNWVRQSPEKGLEWVAQIRLKSDNYATHYAESVKGRFTISRDDSKSSVYLQMNNLRAEDTGIYYCAGYFYGGYFDVWGTGTTVTVSS
VL: ELVLTQSPTTMAASPGKKITITCSASSSISSNYLHWYQQKPGFSPKLLIYRTSNLASGVPARFSGSGSGTSYSLTIGTMEAEDVATYYCQQGSSLPFTFGSGTKLEIK
With B4, in test [8], the binding result is on record as “no binding (tested: not given)”. Besides, in test [7], the Kd was determined as 171 nM, the koff was 0.04 s⁻¹ and the kon came out at 200000 M⁻¹ s⁻¹.

B5: 72E12-H9 (antibody, V domains shown)
VH: EVKLEESGGGLVQPGGSMKLSCVASGFTFSNYWMNWVRQSPEKGLEWVAQIRLKSDNYATHYAESVKGRFTISRDDSKSSVYLQMNNLRAEDTGIYYCAGYFYGGYFDVWGTGTTVTVSS
VL: ELVLTQSPTTMAASPGKKITITCSASSSISSNYLHWYQQKPGFSPKLLIYRTSNLASGVPARFSGSGSGTSYSLTIGTMEAEDVATYYCQQGSSLPFTFGSGTKLEIK
notes: hybridoma supernatant
Molecule B5 yielded a Kd in [1] of 2 nM. Also, in test [8], the binding result is reported as “no binding (tested: not given)”.

B6: 89F4-A1 (antibody, mouse IgG2a, V domains shown)
VH: EVQLVESGGGLVQPKGSLKLSCAASGFTFNTYAMNWVRQAPGKGLEWVARIRSKSNNYAAYFADSVKDRFTISRDDSQTMLYLQMNNLKSEDTAMYYCVSGGNYVPFAYWGQGTLVTVSA
VL: NIMMTQSPSSLAVSAGEKVTMSCKSSQSVFYSSEQRNYLAWYQQKPGQSPKLLISWASTRESGVPDRFTGSGSGTDFTLTISSVQGEDLAVYYCHQYLSSFTFGSGTKLEIK
As for B6, the Kd in test [1] came out at 2.9 nM; in test [7] it was 27 nM. In addition, the binding result in test [2] is reported as “no binding (tested: not given)”; in test [3] it was “no binding (tested: not given)”; in [4], “no binding (tested: not given)”; in test [5] it was “binds”; in [6] it was “binds”. In test [7], the koff is 0.007 s⁻¹. The kon in test [7] stood at 300000 M⁻¹ s⁻¹.

B7: hu37D3-H9.v1 hIgG4.S228P (antibody)
heavy: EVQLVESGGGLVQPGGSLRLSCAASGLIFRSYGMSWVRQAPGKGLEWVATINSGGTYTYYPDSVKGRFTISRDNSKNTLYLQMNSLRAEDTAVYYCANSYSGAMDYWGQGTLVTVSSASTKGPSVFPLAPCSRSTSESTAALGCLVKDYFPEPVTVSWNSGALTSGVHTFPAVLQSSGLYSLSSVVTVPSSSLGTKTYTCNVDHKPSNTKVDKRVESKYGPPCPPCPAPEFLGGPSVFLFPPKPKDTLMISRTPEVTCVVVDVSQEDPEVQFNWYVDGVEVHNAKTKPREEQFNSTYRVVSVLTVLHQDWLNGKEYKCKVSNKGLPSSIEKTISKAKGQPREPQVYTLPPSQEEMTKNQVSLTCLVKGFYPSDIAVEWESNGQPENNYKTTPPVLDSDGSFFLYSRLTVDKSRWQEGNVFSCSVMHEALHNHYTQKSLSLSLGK
light: EDQLTQSPSSLSASVGDRVTITCRSSQSIVHSNGNTYFEWYQQKPGKSPKLLIYKVSNRFSGVPSRFSGSGSGTDFTLTISSLQPEDFATYYCFQGSLVPWTFGQGTKVEIKRTVAAPSVFIFPPSDEQLKSGTASVVCLLNNFYPREAKVQWKVDNALQSGNSQESVTEQDSKDSTYSLSSTLTLSKADYEKHKVYACEVTHQGLSSPVTKSFNRGEC
notes: also called hu37D3.v1 hIgG4
As for B7, in test [9], the Kd is 2 nM, the koff turned out to be 0.0013 s⁻¹ and the kon stood at 670000 M⁻¹ s⁻¹. Further, in [10], the Kd is 2.3 nM, the koff was 0.001 s⁻¹ and the on-rate constant (kon) came out at 600000 M⁻¹ s⁻¹.

B8: 94B2-C1 (antibody, mouse IgG2a, V domains shown)
VH: EVQLQQSGPELVKPGASMKISCKASGYSLTGYTMNWVKQSHGKNLEWIGLISPYNGVTSYNQKFKGKATLTVDKSSNTAYMELLSLTFEDSAVYYCARQGAYWGQGTLVTVSA
VL: not shown
Regarding B8, the Kd in test [1] is 1.9 nM; in test [7], 6 nM. In addition, the binding result is “binds” in test [2], “binds” in [4], “no binding (tested: not given)” in test [5] and “no binding (tested: not given)” in [6]. In addition, in [7], the koff turned out to be 0.0003 s⁻¹. Besides, the kon in test [7] turned out to be 50000 M⁻¹ s⁻¹.
